This passage reports binding signal (fold equilibrium affinity vs WT-WT) and binding signal (fold equilibrium affinity (reference)) results from paper PMC5468090.

What all share (assay): SPR
In general terms: SPR reads the build-up and loss of mass on a sensor chip optically.

The subject of series [1] is XRCC4-Asp;XLF-Asp. The note with it: 1 uM each; koff_fast 4-fold faster than WT-WT; EMSA: 10 mM HEPES pH 8, 75 mM KCl, 0.5 mM EDTA, 0.5 mM DTT, 5% glycerol, RT 30 min, 200 ng DNA/10 ul; SPR: 20 mM HEPES pH 8, 75 mM KCl, 10% glycerol, 1 mM DTT ….
Series [2] deals with XRCC4-Ala;XLF-Ala. The note with it: 1 uM each; described as similar to WT-WT; EMSA: 10 mM HEPES pH 8, 75 mM KCl, 0.5 mM EDTA, 0.5 mM DTT, 5% glycerol, RT 30 min, 200 ng DNA/10 ul; SPR: 20 mM HEPES pH 8, 75 mM KCl, 10% glycerol, 1 mM DTT ….
The test system of series [3] is XRCC4-WT;XLF-WT. The following applies: 1 uM each; EMSA: 10 mM HEPES pH 8, 75 mM KCl, 0.5 mM EDTA, 0.5 mM DTT, 5% glycerol, RT 30 min, 200 ng DNA/10 ul; SPR: 20 mM HEPES pH 8, 75 mM KCl, 10% glycerol, 1 mM DTT …. For orientation: In EMSA bound probe runs differently from free probe, usually more slowly.
Series [4] concerns XRCC4-Ala;XLF-WT. The note with it: 1 uM each; described as similar to WT-WT; EMSA: 10 mM HEPES pH 8, 75 mM KCl, 0.5 mM EDTA, 0.5 mM DTT, 5% glycerol, RT 30 min, 200 ng DNA/10 ul; SPR: 20 mM HEPES pH 8, 75 mM KCl, 10% glycerol, 1 mM DTT ….
Series [5] deals with XRCC4-WT;XLF-Ala. The note with it: 1 uM each; described as similar to WT-WT; EMSA: 10 mM HEPES pH 8, 75 mM KCl, 0.5 mM EDTA, 0.5 mM DTT, 5% glycerol, RT 30 min, 200 ng DNA/10 ul; SPR: 20 mM HEPES pH 8, 75 mM KCl, 10% glycerol, 1 mM DTT ….

Consider 400 bp SPR DNA, for which the binding signal (fold equilibrium affinity vs WT-WT) came out at 0.25 in series [1], 1 in series [2], 1 in series [4] and 1 in series [5]. In addition, in series [3], the binding signal (fold equilibrium affinity (reference)) turned out to be 1.
